Experimental findings from US20220025021A1 (BETH ISRAEL DEACONESS MEDICAL CENTER, published 2022) are described below.

Common to all, as to assay: cell-based or functional assay
Test [1] concerns the target HIV-1 envelope glycoprotein of pseudovirus DU172.17 (HIV-1).
For test [2], the target named is HIV-1 envelope glycoprotein of pseudovirus RHPA4259.7 (HIV-1).
The target of test [3] is HIV-1 envelope glycoprotein of pseudovirus BB1012-11.TC21 (HIV-1).
Test [4] concerns the target HIV-1 envelope glycoprotein of pseudovirus 0260.v5.c36 (HIV-1).
For test [5], the target named is HIV-1 envelope glycoprotein of pseudovirus CNE52 (HIV-1).
Test [6] has as its target HIV-1 envelope glycoprotein of pseudovirus SC422661.8 (HIV-1).

B1: MS-102 (antibody)
VH: not shown
VL: DFVLTQSPHSLSVTPGESASISCKSSHSLIHGDRNNYLAWYVQKPGRSPQLLIYLASSRASGVPDRFSGSGSGKDFTLKISRVEAEDVGTYYCMQGRESPWTFGQGTKVDIKRTVAAPSVFIFPPSDEQLKSGTASVVCLLNNFYPREAKVQWKVDNALQSGNSQESVTEQDSKDSTYSLSSTLTLSKADYEKHKVYACEVTHQGLSSPVTKSFNRGEC
For B1, the “IC50 (neutralization in TZM.bl cells)” value stood at 1.16 µg/mL in test [1]; 0.178 µg/mL in test [2]; 0.031 µg/mL in test [3]; 0.019 µg/mL in test [4]; 0.211 µg/mL in test [5]; 0.17 µg/mL in test [6]. Also, the “IC80 (neutralization in TZM.bl cells)” value turned out to be 5.91 µg/mL in test [1]; 0.649 µg/mL in test [2]; 0.1 µg/mL in test [3]; 0.053 µg/mL in test [4]; 1.87 µg/mL in test [5]; 1.21 µg/mL in test [6].

B2: MS-109 (antibody)
VH: not shown
VL: DFVLTQSPLSLSVTPGEPASISCKSSHSLIHGDRNNYLAWYVQKPGRSPQLLIYLASSRASGVPDRFSGSGSGKDFTLKISRVETEDVGTYYCMQGRESPWTFGQGTKVDIKRTVAAPSVFIFPPSDEQLKSGTASVVCLLNNFYPREAKVQWKVDNALQSGNSQESVTEQDSKDSTYSLSSTLTLSKADYEKHKVYACEVTHQGLSSPVTKSFNRGEC
As to B2, the “IC50 (neutralization in TZM.bl cells)” value in test [1] came out at 1.14 µg/mL; in test [2], 0.182 µg/mL; in test [3], 0.021 µg/mL; in test [4], 0.027 µg/mL; in test [5] it was 0.206 µg/mL; in test [6], 0.233 µg/mL. For the same molecule, the “IC80 (neutralization in TZM.bl cells)” value in test [1] was 8.76 µg/mL; in test [2], 0.794 µg/mL; in test [3], 0.087 µg/mL; in test [4], 0.089 µg/mL; in test [5] it was 1.95 µg/mL; in test [6] it was 1.75 µg/mL.

B3: MS-104 (antibody)
VH: not shown
VL: DIVLTQSPLSLSVTPGESASISCKSSHSLIHGDRNNYLAWYVQKPGRSPQLLIYLASSRASGVPDRFSGSGSGKDFTLKISRVETEDVGTYYCMQGRESPWTFGQGTKVDIKRTVAAPSVFIFPPSDEQLKSGTASVVCLLNNFYPREAKVQWKVDNALQSGNSQESVTEQDSKDSTYSLSSTLTLSKADYEKHKVYACEVTHQGLSSPVTKSFNRGEC
As to B3, the “IC50 (neutralization in TZM.bl cells)” value was found to be 2.58 µg/mL in test [1]; 0.227 µg/mL in test [2]; 0.032 µg/mL in test [3]; 0.024 µg/mL in test [4]; 0.509 µg/mL in test [5]; 0.277 µg/mL in test [6]. For the same molecule, the “IC80 (neutralization in TZM.bl cells)” value in test [1] turned out to be 9.41 µg/mL; in test [2], 1.02 µg/mL; in test [3], 0.137 µg/mL; in test [4], 0.084 µg/mL; in test [5], 6.48 µg/mL; in test [6] it was 1.52 µg/mL.

B4: MS-105 (antibody)
VH: not shown
VL: DIVLTQSPLSLSVTPGESASISCKSSHSLIHGDRNNYLAWYVQKPGRSPQLLIYLASSRASGVPDRFSGSGSDKDFTLKISRVEAEDVGTYYCMQGRESPWTFGQGTKVDIKRTVAAPSVFIFPPSDEQLKSGTASVVCLLNNFYPREAKVQWKVDNALQSGNSQESVTEQDSKDSTYSLSSTLTLSKADYEKHKVYACEVTHQGLSSPVTKSFNRGEC
On to B4, for which the “IC50 (neutralization in TZM.bl cells)” value in test [1] was determined as 3.06 µg/mL; in test [2], 0.27 µg/mL; in test [3], 0.038 µg/mL; in test [4], 0.032 µg/mL; in test [5], 0.441 µg/mL; in test [6], 0.44 µg/mL. Moreover, the “IC80 (neutralization in TZM.bl cells)” value was 11.5 µg/mL in test [1]; 1.25 µg/mL in test [2]; 0.124 µg/mL in test [3]; 0.11 µg/mL in test [4]; 5.04 µg/mL in test [5]; 3.51 µg/mL in test [6].

B5: MS-108 (antibody)
VH: not shown
VL: DIVLTQSPHSLSVTPGESASISCKSSHSLIHGDRNNYLAWYVQKPGRSPQLLIYLASSRASGVPDRFSGSGSGKDFTLKISRVEAEDVGTYYCMQGRESPWTFGQGTKVDIKRTVAAPSVFIFPPSDEQLKSGTASVVCLLNNFYPREAKVQWKVDNALQSGNSQESVTEQDSKDSTYSLSSTLTLSKADYEKHKVYACEVTHQGLSSPVTKSFNRGEC
Take B5: the “IC50 (neutralization in TZM.bl cells)” value turned out to be 1.71 µg/mL in test [1]; 0.178 µg/mL in test [2]; 0.027 µg/mL in test [3]; 0.028 µg/mL in test [4]; 0.265 µg/mL in test [5]; 0.148 µg/mL in test [6]. Moreover, the “IC80 (neutralization in TZM.bl cells)” value in test [1] was 13.6 µg/mL; in test [2], 1.1 µg/mL; in test [3], 0.11 µg/mL; in test [4], 0.088 µg/mL; in test [5], 3.5 µg/mL; in test [6], 1.25 µg/mL.

B6: MS-106 (antibody)
VH: not shown
VL: DIVLTQSPHSLSVTPGEPASISCKSSHSLIHGDRNNYLAWYVQKPGRSPQLLIYLASSRASGVPDRFSGSGSGKDFTLKISRVETEDVGTYYCMQGRESPWTFGQGTKVDIKRTVAAPSVFIFPPSDEQLKSGTASVVCLLNNFYPREAKVQWKVDNALQSGNSQESVTEQDSKDSTYSLSSTLTLSKADYEKHKVYACEVTHQGLSSPVTKSFNRGEC
For the molecule B6, the “IC50 (neutralization in TZM.bl cells)” value in test [1] was determined as 1.49 µg/mL; in test [2] it was 0.143 µg/mL; in test [3], 0.031 µg/mL; in test [4], 0.018 µg/mL; in test [5], 0.42 µg/mL; in test [6], 0.201 µg/mL. Further, the “IC80 (neutralization in TZM.bl cells)” value in test [1] was found to be 8.04 µg/mL; in test [2] it was 0.72 µg/mL; in test [3], 0.132 µg/mL; in test [4], 0.066 µg/mL; in test [5] it was 4.31 µg/mL; in test [6] it was 1.07 µg/mL.

B7: MS-110 (antibody)
VH: not shown
VL: DFVLTQSPLSLSVTPGEPASISCKSSHSLIHGDRNNYLAWYVQKPGRSPQLLIYLASSRASGVPDRFSGSGSDKDFTLKISRVEAEDVGTYYCMQGRESPWTFGQGTKVDIKRTVAAPSVFIFPPSDEQLKSGTASVVCLLNNFYPREAKVQWKVDNALQSGNSQESVTEQDSKDSTYSLSSTLTLSKADYEKHKVYACEVTHQGLSSPVTKSFNRGEC
On to B7, for which the “IC50 (neutralization in TZM.bl cells)” value in test [1] is 0.847 µg/mL; in test [2], 0.18 µg/mL; in test [3], 0.033 µg/mL; in test [4] it was 0.026 µg/mL; in test [5], 0.21 µg/mL; in test [6] it was 0.243 µg/mL. The “IC80 (neutralization in TZM.bl cells)” value amounted to 7.3 µg/mL in test [1]; 0.817 µg/mL in test [2]; 0.104 µg/mL in test [3]; 0.088 µg/mL in test [4]; 1.31 µg/mL in test [5]; 1.19 µg/mL in test [6].

B8: MS-103 (antibody)
VH: not shown
VL: DIVLTQSPLSLSVTPGEPASISCKSSHSLIHGDRNNYLAWYVQKPGRSPQLLIYLASSRASGVPDRFSGSGSDKDFTLKISRVETEDVGTYYCMQGRESPWTFGQGTKVDIKRTVAAPSVFIFPPSDEQLKSGTASVVCLLNNFYPREAKVQWKVDNALQSGNSQESVTEQDSKDSTYSLSSTLTLSKADYEKHKVYACEVTHQGLSSPVTKSFNRGEC
For the molecule B8, the “IC50 (neutralization in TZM.bl cells)” value was 2.68 µg/mL in test [1]; 0.29 µg/mL in test [2]; 0.046 µg/mL in test [3]; 0.03 µg/mL in test [4]; 0.432 µg/mL in test [5]; 0.408 µg/mL in test [6]. Further, the “IC80 (neutralization in TZM.bl cells)” value in test [1] was determined as 10.2 µg/mL; in test [2] it was 1.33 µg/mL; in test [3], 0.155 µg/mL; in test [4], 0.104 µg/mL; in test [5], 4.18 µg/mL; in test [6], 1.99 µg/mL.

B9: MS-107 (antibody)
VH: not shown
VL: DIVLTQSPHSLSVTPGEPASISCKSSHSLIHGDRNNYLAWYVQKPGRSPQLLIYLASSRASGVPDRFSGSGSDKDFTLKISRVEAEDVGTYYCMQGRESPWTFGQGTKVDIKRTVAAPSVFIFPPSDEQLKSGTASVVCLLNNFYPREAKVQWKVDNALQSGNSQESVTEQDSKDSTYSLSSTLTLSKADYEKHKVYACEVTHQGLSSPVTKSFNRGEC
In the case of B9, the “IC50 (neutralization in TZM.bl cells)” value in test [1] worked out at 2.58 µg/mL; in test [2] it was 0.219 µg/mL; in test [3], 0.035 µg/mL; in test [4], 0.034 µg/mL; in test [5], 0.389 µg/mL; in test [6] it was 0.362 µg/mL. In addition, the “IC80 (neutralization in TZM.bl cells)” value in test [1] is 13.9 µg/mL; in test [2], 0.949 µg/mL; in test [3], 0.111 µg/mL; in test [4] it was 0.109 µg/mL; in test [5], 5.29 µg/mL; in test [6], 2.07 µg/mL.
